Test results from patent CN101218351A (UNIV DUKE, dated 2008).

Target: T1, human CD19 (human, UniProt P15391 20-556)
T1 construct: whole, on cells; also called hCD19
T1 sequence (looked up): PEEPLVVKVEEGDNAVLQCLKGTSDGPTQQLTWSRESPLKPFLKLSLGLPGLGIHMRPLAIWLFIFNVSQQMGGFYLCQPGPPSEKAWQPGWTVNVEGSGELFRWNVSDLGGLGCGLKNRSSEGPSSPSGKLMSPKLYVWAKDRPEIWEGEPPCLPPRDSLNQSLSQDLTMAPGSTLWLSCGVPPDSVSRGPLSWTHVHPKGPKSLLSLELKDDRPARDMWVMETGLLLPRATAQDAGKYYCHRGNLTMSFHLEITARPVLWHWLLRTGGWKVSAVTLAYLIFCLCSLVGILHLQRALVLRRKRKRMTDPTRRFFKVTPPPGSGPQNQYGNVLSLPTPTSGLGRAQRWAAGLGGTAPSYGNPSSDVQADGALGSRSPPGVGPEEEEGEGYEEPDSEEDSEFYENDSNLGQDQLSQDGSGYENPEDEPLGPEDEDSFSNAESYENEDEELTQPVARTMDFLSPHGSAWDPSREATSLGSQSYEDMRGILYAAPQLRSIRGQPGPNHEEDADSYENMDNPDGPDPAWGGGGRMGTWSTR
Experiment: flow cytometry on hCD19 cDNA-transfected 300.19 cells, antibody at 5 ug/mL, anti-mouse Ig PE secondary

- binding result: binds
B1: FMC63 anti-CD19 antibody (antibody, IgG2a, V domains shown)
VH: EVKLQESGPGLVAPSQSLSVTCTVSGVSLPDYGVSWIRQPPRKGLEWLGVIWGSEDTTYYNSALKSRLTIIKDNSKSQVFLKMNSLQTDDTAIYYCAKHYYYGGSYAMDYWGQGTSVTVSS
VL: DIQMTQTTSSLSASLGDRVTISCRASQDISKYLNWYQQKPDGTVKLLIYHTSRLHSGVPSRFSGSGSGTDYSLTISNLEQEDIATYFCQQGNTLPYTFGGGTKLEIT
notes: Mouse monoclonal IgG2a, bought from Chemicon International
